Measured values as given in paper PMC4513855.

Legend:
[1] = molecular target: T1, VirE2 (co-expressed with VirE1);VirE1 (Agrobacterium tumefaciens (nopaline …, UniProt P08062;P08063 1-556;1-63, |)); assay: SPRi
T1 sequence 1: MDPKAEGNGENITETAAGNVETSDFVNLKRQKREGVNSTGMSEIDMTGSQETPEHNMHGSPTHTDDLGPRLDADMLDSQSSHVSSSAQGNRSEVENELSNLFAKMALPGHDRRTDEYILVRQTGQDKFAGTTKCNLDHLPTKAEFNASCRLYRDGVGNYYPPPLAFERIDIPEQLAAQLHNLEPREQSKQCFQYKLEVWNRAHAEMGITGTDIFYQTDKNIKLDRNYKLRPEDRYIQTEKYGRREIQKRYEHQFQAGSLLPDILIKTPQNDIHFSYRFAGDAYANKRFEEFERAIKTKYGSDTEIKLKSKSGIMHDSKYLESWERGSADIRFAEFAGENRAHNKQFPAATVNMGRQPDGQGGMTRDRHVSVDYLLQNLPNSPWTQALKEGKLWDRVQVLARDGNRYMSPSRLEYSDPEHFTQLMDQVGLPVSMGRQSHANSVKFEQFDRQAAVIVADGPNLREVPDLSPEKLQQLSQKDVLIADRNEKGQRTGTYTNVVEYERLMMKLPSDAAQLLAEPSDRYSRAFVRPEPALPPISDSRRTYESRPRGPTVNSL
T1 sequence 2: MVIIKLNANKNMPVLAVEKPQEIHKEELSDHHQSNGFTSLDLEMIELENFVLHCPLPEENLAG

VirE2 = molecular target: T2, VirE2 (Agrobacterium tumefaciens (nopaline …, UniProt P08062 1-556)); assay: SPRi
T2 sequence: T1 sequence 1

TTTTTTTTTTTTTTTTTTTTTTTTTTTTTTTTTTTTTTTT (ssDNA, 5' C6-thiol) [ssT40 (poly-T 40-mer)]
binding result [1]: binds | binding result (VirE2): binds
